Data taken from publication doi:10.1101/2020.07.20.212654 (bioRxiv, 2020).

Tests used:
MET567 [1] = target: T1, MET567 (human, UniProt P08581 25-567); assay: SPR
MET567 [2] = target: T1, MET567; assay: SEC-SAXS

T1 sequence (P08581 25-567): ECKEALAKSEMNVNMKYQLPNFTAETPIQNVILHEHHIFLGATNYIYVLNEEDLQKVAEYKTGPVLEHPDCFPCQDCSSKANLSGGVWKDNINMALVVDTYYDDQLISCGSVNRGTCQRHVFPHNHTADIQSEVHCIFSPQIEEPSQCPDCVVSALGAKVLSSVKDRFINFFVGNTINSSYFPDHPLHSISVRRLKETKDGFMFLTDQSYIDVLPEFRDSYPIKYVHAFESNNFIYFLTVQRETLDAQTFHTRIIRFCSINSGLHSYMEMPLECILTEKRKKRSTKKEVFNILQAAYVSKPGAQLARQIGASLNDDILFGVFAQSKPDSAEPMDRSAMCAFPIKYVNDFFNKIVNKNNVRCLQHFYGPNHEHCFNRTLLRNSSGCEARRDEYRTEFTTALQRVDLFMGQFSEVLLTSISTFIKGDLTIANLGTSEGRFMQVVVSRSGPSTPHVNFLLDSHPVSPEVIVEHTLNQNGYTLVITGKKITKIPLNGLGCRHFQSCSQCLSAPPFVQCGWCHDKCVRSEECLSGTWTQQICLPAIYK

K1K1 (from UniProt P14210 128-206) (ligand)
Kd (MET567 [1]): 205 nM | stoichiometry N (MET567 [2]): 1 K1K1:MET567

B1: NK1 (domain or fragment, human, UniProt P14210 28-209, looked up)
chain: YAEGQRKRRNTIHEFKKSAKTTLIKIDPALKIKTKKVNTADQCANRCTRNKGLPFTCKAFVFDKARKQCLWFPFNSMSSGVKKEFGHEFDLYENKDYIRNCIIGKGRSYKGTVSITKSGIKCQPWSSMIPHEHSFLPSSYRGKDLQENYCRNPRGEEGGPWCFTSNPEVRYEVCDIPQCSEV
Kd (MET567 [1]): 200 nM
